In patent US20110300138A1 (published 2011):
Like-named read-outs stand apart in the source and are kept apart here.

What was measured:
Experiment in all cases: cell-based or functional assay
[1] = target: TSHR with Glu107 mutated to Ala expressed in CHO cells (human) (UniProt P16473)
[2] = target: TSHR with Glu178 mutated to Ala expressed in CHO cells (human) (UniProt P16473)
[3] = target: TSHR with Glu251 mutated to Ala (human) (UniProt P16473)
[4] = target: TSHR with Lys183 mutated to Asp expressed in CHO cells (human) (UniProt P16473)
TSHR with Lys183 mutated to Asp expressed in CHO cells (human), sequence (P16473 other isoform, or with tags, fused parts or gaps limits assumed, change not shown): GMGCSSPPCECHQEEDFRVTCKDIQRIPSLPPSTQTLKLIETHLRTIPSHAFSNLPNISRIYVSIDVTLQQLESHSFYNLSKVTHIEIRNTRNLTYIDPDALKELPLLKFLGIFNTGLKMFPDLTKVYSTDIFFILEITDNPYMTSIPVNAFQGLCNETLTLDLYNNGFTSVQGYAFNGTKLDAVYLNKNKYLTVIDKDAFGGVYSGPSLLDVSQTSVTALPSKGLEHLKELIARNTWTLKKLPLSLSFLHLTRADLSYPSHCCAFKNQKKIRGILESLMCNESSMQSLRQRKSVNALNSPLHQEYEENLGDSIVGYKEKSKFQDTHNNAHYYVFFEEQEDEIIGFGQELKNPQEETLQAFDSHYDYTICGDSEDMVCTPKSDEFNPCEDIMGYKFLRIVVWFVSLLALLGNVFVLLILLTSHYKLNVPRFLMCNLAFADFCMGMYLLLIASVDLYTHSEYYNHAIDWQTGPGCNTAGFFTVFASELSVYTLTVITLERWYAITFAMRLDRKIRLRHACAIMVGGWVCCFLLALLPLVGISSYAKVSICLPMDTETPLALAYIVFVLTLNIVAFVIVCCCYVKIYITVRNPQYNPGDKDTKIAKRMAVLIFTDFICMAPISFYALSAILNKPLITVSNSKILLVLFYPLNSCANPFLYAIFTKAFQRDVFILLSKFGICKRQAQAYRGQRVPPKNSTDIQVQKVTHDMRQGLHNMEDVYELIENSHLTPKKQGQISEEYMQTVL

[5] = target: TSHR with Lys209 mutated to Ala (expressed in CHO cells) (human) (UniProt P16473)
[6] = target: TSHR with Lys250 mutated to Ala (expressed in CHO cells) (human) (UniProt P16473)
TSHR with Lys250 mutated to Ala (expressed in CHO cells) (human), sequence (P16473 other isoform, or with tags, fused parts or gaps, change not shown): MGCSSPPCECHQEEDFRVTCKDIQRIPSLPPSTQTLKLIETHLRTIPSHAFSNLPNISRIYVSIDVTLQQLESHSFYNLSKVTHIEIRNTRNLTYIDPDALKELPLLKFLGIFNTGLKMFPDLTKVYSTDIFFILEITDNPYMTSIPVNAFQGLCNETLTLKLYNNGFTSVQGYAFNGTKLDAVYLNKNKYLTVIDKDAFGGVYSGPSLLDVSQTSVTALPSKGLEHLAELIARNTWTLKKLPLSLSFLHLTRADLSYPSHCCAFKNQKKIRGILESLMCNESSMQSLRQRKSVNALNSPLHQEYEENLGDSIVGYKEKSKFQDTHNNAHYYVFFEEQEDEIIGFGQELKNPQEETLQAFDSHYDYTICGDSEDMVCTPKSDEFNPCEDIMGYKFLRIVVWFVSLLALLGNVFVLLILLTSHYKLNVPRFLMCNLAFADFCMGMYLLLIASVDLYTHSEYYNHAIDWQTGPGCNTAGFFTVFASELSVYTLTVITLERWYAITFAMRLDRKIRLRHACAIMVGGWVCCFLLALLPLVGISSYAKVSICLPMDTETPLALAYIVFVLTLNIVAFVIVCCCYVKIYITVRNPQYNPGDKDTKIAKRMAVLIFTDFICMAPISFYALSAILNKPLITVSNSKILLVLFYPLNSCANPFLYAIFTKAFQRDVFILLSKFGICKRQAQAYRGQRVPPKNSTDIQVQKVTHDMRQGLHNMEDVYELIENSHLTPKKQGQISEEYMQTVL

[7] = target: TSHR with Tyr185 mutated to Ala, expressed in CHO cells (human) (UniProt P16473)
TSHR with Tyr185 mutated to Ala, expressed in CHO cells (human), sequence (P16473 other isoform, or with tags, fused parts or gaps limits assumed, change not shown): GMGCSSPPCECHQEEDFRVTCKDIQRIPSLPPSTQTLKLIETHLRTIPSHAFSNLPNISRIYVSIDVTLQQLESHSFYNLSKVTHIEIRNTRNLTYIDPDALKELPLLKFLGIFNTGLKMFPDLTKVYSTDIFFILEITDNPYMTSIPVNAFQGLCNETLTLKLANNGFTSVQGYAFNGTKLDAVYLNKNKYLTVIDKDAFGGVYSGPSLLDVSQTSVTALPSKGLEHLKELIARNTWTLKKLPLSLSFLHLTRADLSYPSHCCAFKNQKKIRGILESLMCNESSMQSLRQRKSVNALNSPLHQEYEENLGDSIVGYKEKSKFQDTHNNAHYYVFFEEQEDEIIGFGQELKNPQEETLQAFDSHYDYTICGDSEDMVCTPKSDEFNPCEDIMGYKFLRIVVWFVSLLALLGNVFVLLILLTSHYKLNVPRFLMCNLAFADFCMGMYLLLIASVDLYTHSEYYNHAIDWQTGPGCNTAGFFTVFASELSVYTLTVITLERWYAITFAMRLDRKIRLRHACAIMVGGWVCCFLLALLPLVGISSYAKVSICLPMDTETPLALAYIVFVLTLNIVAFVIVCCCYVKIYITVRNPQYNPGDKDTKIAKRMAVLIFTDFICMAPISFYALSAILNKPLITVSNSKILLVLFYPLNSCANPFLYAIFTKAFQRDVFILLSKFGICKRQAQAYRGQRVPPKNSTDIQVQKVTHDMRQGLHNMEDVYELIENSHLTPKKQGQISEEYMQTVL

TSHR with Glu178 mutated to Ala expressed in CHO cells (human), sequence (P16473 other isoform, or with tags, fused parts or gaps, change not shown): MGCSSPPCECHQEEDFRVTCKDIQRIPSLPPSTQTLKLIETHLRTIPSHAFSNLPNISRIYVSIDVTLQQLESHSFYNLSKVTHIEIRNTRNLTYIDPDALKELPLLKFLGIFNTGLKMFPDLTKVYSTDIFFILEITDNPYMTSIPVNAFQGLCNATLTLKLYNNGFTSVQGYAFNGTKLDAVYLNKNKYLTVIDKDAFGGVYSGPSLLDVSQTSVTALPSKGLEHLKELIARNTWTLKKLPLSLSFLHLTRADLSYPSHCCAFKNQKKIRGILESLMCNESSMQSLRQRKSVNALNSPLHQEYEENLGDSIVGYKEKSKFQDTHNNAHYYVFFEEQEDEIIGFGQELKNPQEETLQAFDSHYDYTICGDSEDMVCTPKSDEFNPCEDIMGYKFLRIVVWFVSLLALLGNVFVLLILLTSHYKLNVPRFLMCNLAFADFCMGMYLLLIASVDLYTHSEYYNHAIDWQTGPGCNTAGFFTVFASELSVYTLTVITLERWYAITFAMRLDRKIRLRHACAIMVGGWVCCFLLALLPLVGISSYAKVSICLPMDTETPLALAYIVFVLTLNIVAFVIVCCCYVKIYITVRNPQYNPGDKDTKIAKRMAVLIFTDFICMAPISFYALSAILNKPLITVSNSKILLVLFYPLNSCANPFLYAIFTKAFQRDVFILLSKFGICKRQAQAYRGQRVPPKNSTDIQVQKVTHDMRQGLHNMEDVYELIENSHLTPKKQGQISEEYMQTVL
TSHR with Glu107 mutated to Ala expressed in CHO cells (human), sequence (P16473 other isoform, or with tags, fused parts or gaps, change not shown): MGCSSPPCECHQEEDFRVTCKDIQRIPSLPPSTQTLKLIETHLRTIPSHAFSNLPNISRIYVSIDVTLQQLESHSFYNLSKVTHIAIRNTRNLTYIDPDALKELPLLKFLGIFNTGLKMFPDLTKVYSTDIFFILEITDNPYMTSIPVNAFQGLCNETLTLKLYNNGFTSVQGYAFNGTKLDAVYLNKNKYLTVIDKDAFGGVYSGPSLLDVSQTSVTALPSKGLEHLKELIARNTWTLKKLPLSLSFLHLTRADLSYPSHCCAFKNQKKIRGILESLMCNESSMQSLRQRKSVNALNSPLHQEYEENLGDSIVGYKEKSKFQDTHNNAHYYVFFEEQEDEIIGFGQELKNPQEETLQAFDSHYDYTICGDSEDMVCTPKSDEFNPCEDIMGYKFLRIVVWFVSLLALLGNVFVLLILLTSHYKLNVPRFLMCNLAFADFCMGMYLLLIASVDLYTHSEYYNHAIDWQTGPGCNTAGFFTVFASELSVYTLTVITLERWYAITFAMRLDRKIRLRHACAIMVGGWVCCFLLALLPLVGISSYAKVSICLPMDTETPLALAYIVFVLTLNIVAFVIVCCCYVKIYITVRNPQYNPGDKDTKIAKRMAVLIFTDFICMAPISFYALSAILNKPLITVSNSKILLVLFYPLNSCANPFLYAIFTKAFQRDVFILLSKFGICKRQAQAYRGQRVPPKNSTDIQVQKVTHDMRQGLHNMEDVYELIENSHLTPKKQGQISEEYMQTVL
TSHR with Glu251 mutated to Ala (human), sequence (P16473 other isoform, or with tags, fused parts or gaps, change not shown): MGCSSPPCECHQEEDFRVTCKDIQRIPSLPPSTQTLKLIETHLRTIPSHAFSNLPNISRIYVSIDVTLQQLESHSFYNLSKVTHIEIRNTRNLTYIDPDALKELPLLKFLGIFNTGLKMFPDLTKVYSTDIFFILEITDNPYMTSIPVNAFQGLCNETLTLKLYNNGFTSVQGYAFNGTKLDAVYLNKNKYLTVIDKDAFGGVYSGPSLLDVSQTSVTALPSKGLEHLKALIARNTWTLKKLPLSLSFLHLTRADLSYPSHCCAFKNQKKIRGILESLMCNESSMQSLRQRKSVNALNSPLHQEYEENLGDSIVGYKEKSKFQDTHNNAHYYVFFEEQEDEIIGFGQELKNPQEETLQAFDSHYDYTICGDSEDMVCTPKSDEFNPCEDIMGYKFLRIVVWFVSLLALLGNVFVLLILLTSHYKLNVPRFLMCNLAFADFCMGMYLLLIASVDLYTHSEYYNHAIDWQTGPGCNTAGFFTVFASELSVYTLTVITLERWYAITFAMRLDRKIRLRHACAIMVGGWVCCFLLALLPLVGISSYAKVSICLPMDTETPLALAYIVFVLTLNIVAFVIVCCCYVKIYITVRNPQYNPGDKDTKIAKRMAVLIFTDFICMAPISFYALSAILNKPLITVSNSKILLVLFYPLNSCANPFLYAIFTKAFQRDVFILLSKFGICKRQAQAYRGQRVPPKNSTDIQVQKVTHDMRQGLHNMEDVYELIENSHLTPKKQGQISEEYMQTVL

TSH (ligand) gave a Mutated/Wild type (%) of cyclic AMP produced, TSH 0.1 ng/mL [1] of 149%, a Mutated/Wild type (%) of cyclic AMP produced, TSH 0.3 ng/mL [1] of 97% and a Mutated/Wild type (%) of cyclic AMP produced, TSH 1 ng/mL [1] of 68%. For the same substance, the Mutated/wild type (%) of cyclic AMP produced; TSH 3 ng/mL [1] was 82%, the Mutated/wild type (%) of cyclic AMP produced; TSH (2) [1] was 78% and the Mutated/wild type (%) of cyclic AMP produced; TSH 3 ng/mL ([1]; record 2) was 110%. The Mutated/Wild type (%) of cyclic AMP produced, TSH 0.01 ng/mL [2] was 467%, the Mutated/Wild type (%) of cyclic AMP produced, TSH 0.03 ng/mL [2] was 240% and the Mutated/Wild type (%) of cyclic AMP produced, TSH 0.1 ng/mL [2] was 115%. It also gave a Mutated/Wild type (%) of cyclic AMP produced, TSH 0.3 ng/mL [2] of 71%, a Mutated/Wild type (%) of cyclic AMP produced, TSH 1 ng/mL [2] of 54% and a Cyclic AMP produced (mean of duplicate), TSH 3 ng/mL [3] of 71.7 pmol/mL. For the same substance, the Mutated/Wild type (%) of cyclic AMP produced, TSH 0.01 ng/mL [3] was 243%, the Mutated/Wild type (%) of cyclic AMP produced, TSH 0.03 ng/mL [3] was 224% and the Mutated/Wild type (%) of cyclic AMP produced, TSH 0.1 ng/mL [3] was 115%. It also gave a Mutated/Wild type (%) of cyclic AMP produced, TSH 0.3 ng/mL [3] of 67%, a Mutated/Wild type (%) of cyclic AMP produced, TSH 1 ng/mL [3] of 69% and a Mutated/wild type (%) of cyclic AMP produced; TSH 3 ng/mL [3] of 66%. The Cyclic AMP produced (pmol/mL), mutated TSHR, TSH 0.01 ng/mL [4] was 4.08 pmol/mL, the Cyclic AMP produced (pmol/mL), mutated TSHR, TSH 0.03 ng/mL [4] was 7.18 pmol/mL and the Cyclic AMP produced (pmol/mL), mutated TSHR, TSH 0.1 ng/mL [4] was 19.1 pmol/mL. It also gave a Cyclic AMP produced (pmol/mL), mutated TSHR, TSH 0.3 ng/mL [4] of 51.7 pmol/mL, a Cyclic AMP produced (pmol/mL), mutated TSHR, TSH 1 ng/mL [4] of 93.3 pmol/mL and a Cyclic AMP produced (pmol/mL), mutated TSHR, TSH 3 ng/mL [4] of 106 pmol/mL. For the same substance, the Mutated/Wild type (%), TSH 0.01 ng/mL [4] was 165%, the Mutated/Wild type (%), TSH 0.03 ng/mL [4] was 155% and the Mutated/Wild type (%), TSH 0.1 ng/mL [4] was 109%. For the same substance, the Mutated/Wild type (%), TSH 0.3 ng/mL [4] was 128%, the Mutated/Wild type (%), TSH 1 ng/mL [4] was 101% and the Mutated/Wild type (%), TSH 3 ng/mL [4] was 102%. It also gave a Mutated/Wild type (%) of cyclic AMP produced, TSH 0.01 ng/mL [5] of 171%, a Mutated/Wild type (%) of cyclic AMP produced, TSH 0.03 ng/mL [5] of 128% and a Mutated/Wild type (%) of cyclic AMP produced, TSH 0.1 ng/mL [5] of 65%. It also gave a Mutated/Wild type (%) of cyclic AMP produced, TSH 0.3 ng/mL [5] of 64%, a Mutated/Wild type (%) of cyclic AMP produced, TSH 1 ng/mL [5] of 45% and a Cyclic AMP produced, TSH 0.01 ng/mL [6] of 8.29 pmol/mL. It also gave a Cyclic AMP produced, TSH 0.03 ng/mL [6] of 12.6 pmol/mL, a Cyclic AMP produced, TSH 0.1 ng/mL [6] of 28.8 pmol/mL and a Cyclic AMP produced, TSH 0.3 ng/mL [6] of 66.2 pmol/mL. For the same substance, the Cyclic AMP produced, TSH 1 ng/mL [6] was 87.9 pmol/mL, the Cyclic AMP produced; TSH 3 ng/mL [6] was 110 pmol/mL and the Mutated/Wild type (%) of cyclic AMP produced, TSH 0.01 ng/mL [6] was 207%. For the same substance, the Mutated/Wild type (%) of cyclic AMP produced, TSH 0.03 ng/mL [6] was 189%, the Mutated/Wild type (%) of cyclic AMP produced, TSH 0.1 ng/mL [6] was 147% and the Mutated/Wild type (%) of cyclic AMP produced, TSH 0.3 ng/mL [6] was 147%. It also gave a Mutated/Wild type (%) of cyclic AMP produced, TSH 1 ng/mL [6] of 116%, a Mutated/wild type (%) of cyclic AMP produced; TSH 3 ng/mL [6] of 126% and a Cyclic AMP produced (pmol/mL), mutated TSHR, TSH 0.01 ng/mL, Experiment 1 [7] of 3.33 pmol/mL. For the same substance, the Cyclic AMP produced (pmol/mL), mutated TSHR, TSH 0.01 ng/mL, Experiment 2 [7] was 3.82 pmol/mL, the Cyclic AMP produced (pmol/mL), mutated TSHR, TSH 0.03 ng/mL, Experiment 1 [7] was 3.85 pmol/mL and the Cyclic AMP produced (pmol/mL), mutated TSHR, TSH 0.03 ng/mL, Experiment 2 [7] was 5.6 pmol/mL. The Cyclic AMP produced (pmol/mL), mutated TSHR, TSH 0.1 ng/mL, Experiment 1 [7] was 8.36 pmol/mL, the Cyclic AMP produced (pmol/mL), mutated TSHR, TSH 0.1 ng/mL, Experiment 2 [7] was 12.3 pmol/mL and the Cyclic AMP produced (pmol/mL), mutated TSHR, TSH 0.3 ng/mL, Experiment 1 [7] was 21.1 pmol/mL. The Cyclic AMP produced (pmol/mL), mutated TSHR, TSH 0.3 ng/mL, Experiment 2 [7] was 30.5 pmol/mL, the Cyclic AMP produced (pmol/mL), mutated TSHR, TSH 1 ng/mL, Experiment 1 [7] was 37.8 pmol/mL and the Cyclic AMP produced (pmol/mL), mutated TSHR, TSH 1 ng/mL, Experiment 2 [7] was 50.6 pmol/mL. For the same substance, the Cyclic AMP produced (pmol/mL), mutated TSHR, TSH 3 ng/mL, Experiment 1 [7] was 42.9 pmol/mL, the Cyclic AMP produced (pmol/mL), mutated TSHR, TSH 3 ng/mL, Experiment 2 [7] was 56.3 pmol/mL and the Mutated/Wild type (%), TSH 0.01 ng/mL, Experiment 1 [7] was 128%. It also gave a Mutated/Wild type (%), TSH 0.01 ng/mL, Experiment 2 [7] of 98%, a Mutated/Wild type (%), TSH 0.03 ng/mL, Experiment 1 [7] of 90% and a Mutated/Wild type (%), TSH 0.03 ng/mL, Experiment 2 [7] of 101%. It also gave a Mutated/Wild type (%), TSH 0.1 ng/mL, Experiment 1 [7] of 76%, a Mutated/Wild type (%), TSH 0.1 ng/mL, Experiment 2 [7] of 93% and a Mutated/Wild type (%), TSH 0.3 ng/mL, Experiment 1 [7] of 65%. The Mutated/Wild type (%), TSH 0.3 ng/mL, Experiment 2 [7] was 86%, the Mutated/Wild type (%), TSH 1 ng/mL, Experiment 1 [7] was 45% and the Mutated/Wild type (%), TSH 1 ng/mL, Experiment 2 [7] was 62%. For the same substance, the Mutated/Wild type (%), TSH 3 ng/mL, Experiment 1 [7] was 35%.
